This note sets out measurements from publication PMC3937768 (Cell metabolism, 2014).

The data set deals with the molecule itself. As to the kind of experiment: non-reducing SDS-PAGE with immunoblot. Background: In western blotting, separated proteins are transferred to a membrane and probed.

B1: Recombinant AMPKα2 (enzyme, rat, UniProt Q09137 1-552, looked up)
chain: MAEKQKHDGRVKIGHYVLGDTLGVGTFGKVKIGEHQLTGHKVAVKILNRQKIRSLDVVGKIKREIQNLKLFRHPHIIKLYQVISTPTDFFMVMEYVSGGELFDYICKHGRVEEVEARRLFQQILSAVDYCHRHMVVHRDLKPENVLLDAQMNAKIADFGLSNMMSDGEFLRTSCGSPNYAAPEVISGRLYAGPEVDIWSCGVILYALLCGTLPFDDEHVPTLFKKIRGGVFYIPEYLNRSIATLLMHMLQVDPLKRATIKDIREHEWFKQDLPSYLFPEDPSYDANVIDDEAVKEVCEKFECTESEVMNSLYSGDPQDQLAVAYHLIIDNRRIMNQASEFYLASSPPTGSFMDDMAMHIPPGLKPHPERMPPLIADSPKARCPLDALNTTKPKSLAVKKAKWHLGIRSQSKPYDIMAEVYRAMKQLDFEWKVVNAYHLRVRRKNPVTGNYVKMSLQLYLVDNRSYLLDFKSIDDEVVEQRSGSSTPQRSCSAAGLHRPRSSVDSSTAENHSLSGSLTGSLTGSTLSSASPRLGSHTMDFFEMCASLITALAR
For the protein B1, the binding result was “binds”.
